Patent US20160114000A1 (Merck Sharp & Dohme, published 2016)
*1 amine or outer side, *2 acyl side, *3 side chain or, on linkers, in order; H or OH if unused. Where a SMILES comes first, the peptide text is derived from it. Where no end group is shown, it is not given here. Side-chain parts run from the residue outwards. [ ]: non-standard residue; d: D form. The star is where a group is joined. γGlu = O=C(O)[C@H](CCC(=O)[*:2])N[*:1]; Palmitoyl = CCCCCCCCCCCCCCCC(=O)*; Nle = CCCC[C@H](N)C(=O)O; Aib = CC(C)(N)C(=O)O

B1: Co-agonist Peptide 7 (peptide)
peptide: Ac-HAQGTFTSDK([γGlu-γGlu-Palmitoyl])SKYLDERAAQDFVQWLLDT-NH2
SMILES: CCCCCCCCCCCCCCCC(=O)N[C@@H](CCC(=O)N[C@@H](CCC(=O)NCCCC[C@H](NC(=O)[C@H](CC(=O)O)NC(=O)[C@H](CO)NC(=O)[C@@H](NC(=O)[C@H](Cc1ccccc1)NC(=O)[C@@H](NC(=O)CNC(=O)[C@H](CCC(N)=O)NC(=O)[C@H](C)NC(=O)[C@H](Cc1c[nH]cn1)NC(C)=O)[C@@H](C)O)[C@@H](C)O)C(=O)N[C@@H](CO)C(=O)N[C@@H](CCCCN)C(=O)N[C@@H](Cc1ccc(O)cc1)C(=O)N[C@@H](CC(C)C)C(=O)N[C@@H](CC(=O)O)C(=O)N[C@@H](CCC(=O)O)C(=O)N[C@@H](CCCNC(=N)N)C(=O)N[C@@H](C)C(=O)N[C@@H](C)C(=O)N[C@@H](CCC(N)=O)C(=O)N[C@@H](CC(=O)O)C(=O)N[C@@H](Cc1ccccc1)C(=O)N[C@H](C(=O)N[C@@H](CCC(N)=O)C(=O)N[C@@H](Cc1c[nH]c2ccccc12)C(=O)N[C@@H](CC(C)C)C(=O)N[C@@H](CC(C)C)C(=O)N[C@@H](CC(=O)O)C(=O)N[C@H](C(N)=O)[C@@H](C)O)C(C)C)C(=O)O)C(=O)O
B2: Co-agonist Peptide 1 (peptide)
peptide: H[dS]QGTFTSDK([γGlu-Palmitoyl])SKYLDARAAQDFVQWLLDT-NH2
modifications: N-terminus assumed
SMILES: CCCCCCCCCCCCCCCC(=O)N[C@@H](CCC(=O)NCCCC[C@H](NC(=O)[C@H](CC(=O)O)NC(=O)[C@H](CO)NC(=O)[C@@H](NC(=O)[C@H](Cc1ccccc1)NC(=O)[C@@H](NC(=O)CNC(=O)[C@H](CCC(N)=O)NC(=O)[C@@H](CO)NC(=O)[C@@H](N)Cc1c[nH]cn1)[C@@H](C)O)[C@@H](C)O)C(=O)N[C@@H](CO)C(=O)N[C@@H](CCCCN)C(=O)N[C@@H](Cc1ccc(O)cc1)C(=O)N[C@@H](CC(C)C)C(=O)N[C@@H](CC(=O)O)C(=O)N[C@@H](C)C(=O)N[C@@H](CCCNC(=N)N)C(=O)N[C@@H](C)C(=O)N[C@@H](C)C(=O)N[C@@H](CCC(N)=O)C(=O)N[C@@H](CC(=O)O)C(=O)N[C@@H](Cc1ccccc1)C(=O)N[C@H](C(=O)N[C@@H](CCC(N)=O)C(=O)N[C@@H](Cc1c[nH]c2ccccc12)C(=O)N[C@@H](CC(C)C)C(=O)N[C@@H](CC(C)C)C(=O)N[C@@H](CC(=O)O)C(=O)N[C@H](C(N)=O)[C@@H](C)O)C(C)C)C(=O)O
B3: Co-agonist Peptide 4 (peptide)
peptide: H[Aib]VGTFTSDK([γGlu-γGlu-Palmitoyl])SKYLD[Aib]RAAQDFVQWL[Nle]DT-NH2
modifications: N-terminus assumed
SMILES: CCCCCCCCCCCCCCCC(=O)N[C@@H](CCC(=O)N[C@@H](CCC(=O)NCCCC[C@H](NC(=O)[C@H](CC(=O)O)NC(=O)[C@H](CO)NC(=O)[C@@H](NC(=O)[C@H](Cc1ccccc1)NC(=O)[C@@H](NC(=O)CNC(=O)[C@@H](NC(=O)C(C)(C)NC(=O)[C@@H](N)Cc1c[nH]cn1)C(C)C)[C@@H](C)O)[C@@H](C)O)C(=O)N[C@@H](CO)C(=O)N[C@@H](CCCCN)C(=O)N[C@@H](Cc1ccc(O)cc1)C(=O)N[C@@H](CC(C)C)C(=O)N[C@@H](CC(=O)O)C(=O)NC(C)(C)C(=O)N[C@@H](CCCNC(=N)N)C(=O)N[C@@H](C)C(=O)N[C@@H](C)C(=O)N[C@@H](CCC(N)=O)C(=O)N[C@@H](CC(=O)O)C(=O)N[C@@H](Cc1ccccc1)C(=O)N[C@H](C(=O)N[C@@H](CCC(N)=O)C(=O)N[C@@H](Cc1c[nH]c2ccccc12)C(=O)N[C@@H](CC(C)C)C(=O)N[C@@H](CCCC)C(=O)N[C@@H](CC(=O)O)C(=O)N[C@H](C(N)=O)[C@@H](C)O)C(C)C)C(=O)O)C(=O)O
B4: Co-agonist Peptide 5 (peptide)
peptide: H[dS]QGTFTSDK([γGlu-γGlu-Palmitoyl])SKYLDARAAQDFVQWLLDT-NH2
modifications: N-terminus assumed
SMILES: CCCCCCCCCCCCCCCC(=O)N[C@@H](CCC(=O)N[C@@H](CCC(=O)NCCCC[C@H](NC(=O)[C@H](CC(=O)O)NC(=O)[C@H](CO)NC(=O)[C@@H](NC(=O)[C@H](Cc1ccccc1)NC(=O)[C@@H](NC(=O)CNC(=O)[C@H](CCC(N)=O)NC(=O)[C@@H](CO)NC(=O)[C@@H](N)Cc1c[nH]cn1)[C@@H](C)O)[C@@H](C)O)C(=O)N[C@@H](CO)C(=O)N[C@@H](CCCCN)C(=O)N[C@@H](Cc1ccc(O)cc1)C(=O)N[C@@H](CC(C)C)C(=O)N[C@@H](CC(=O)O)C(=O)N[C@@H](C)C(=O)N[C@@H](CCCNC(=N)N)C(=O)N[C@@H](C)C(=O)N[C@@H](C)C(=O)N[C@@H](CCC(N)=O)C(=O)N[C@@H](CC(=O)O)C(=O)N[C@@H](Cc1ccccc1)C(=O)N[C@H](C(=O)N[C@@H](CCC(N)=O)C(=O)N[C@@H](Cc1c[nH]c2ccccc12)C(=O)N[C@@H](CC(C)C)C(=O)N[C@@H](CC(C)C)C(=O)N[C@@H](CC(=O)O)C(=O)N[C@H](C(N)=O)[C@@H](C)O)C(C)C)C(=O)O)C(=O)O
B5: Co-agonist Peptide 14 (peptide)
peptide: HXQGTXTSDKSKYLDERAAQDFVQWLLDT
modifications: D-Ser at 2; threo-β-phenylserine (tβP) at 6; Lys 10 conjugated to γEγE-C16 (palmitoyl); C-terminal amide

Tests used:
[1] = target: T1, human GCGR (Homo sapiens, UniProt P47871); assay: cAMP protocol, cells expressing human GCGR; type: cell-based; conditions: ratio of EC50 at human GCGR to EC50 at human GLP1R
T1 construct: expressed in transfected cells; grown under Geneticin and Hygromycin selection
Method: The cAMP protocol was as follows.
Peptides were dissolved in 100% DMSO and serially diluted to generate 11 point titrations. The peptide solutions were then transferred into 384-well assay plates (150 nL/well). Assay ready frozen cells expressing human GLP-1R or human GCGR were suspended in growth media consisting of DMEM/F12 medium (GIBCO), 10% FBS (GIBCO), lx P/S (GIBCO), 800 μg/mL Geneticin (GIBCO), and 300 μg/mL Hygromycin (Invitrogen). Cells were then diluted in assay buffer consisting of PBS (GIBCO), 7.5% BSA (Perkin Elmer), 100 μM RO 20-1724 (Sigma), and 20% human serum (MP Biomedical). The cell suspensions (15 μL) were then added to the assay plates containing the peptide solutions (30,000 cells/well for human GCGR; 20,000 cells/well for GLP1R). The cells were incubated for 1 hour at room temperature in the dark. Production of cAMP was determined using HitHunter™ cAMPXS kits (DiscoverX). ED buffer (20 μL) was then added to each well and the plates were incubated for 1 hour at room temperature in the dark. Subsequently, EA buffer (20 μL) was added to each well, and the plates were incubated for 1-18 hours at room temperature in the dark. Luminescence was measured using an EnVision Multilabel plate reader (Perkin Elmer). EC50 values were calculated using ADA data analyzer software.

[2] = target: human glucagon receptor (human, UniProt P47871 26-477); assay: cell-based or functional assay
[3] = target: human GLP-1 receptor (human, UniProt P43220 24-463); assay: cell-based or functional assay

T1 sequence (P47871 26-477): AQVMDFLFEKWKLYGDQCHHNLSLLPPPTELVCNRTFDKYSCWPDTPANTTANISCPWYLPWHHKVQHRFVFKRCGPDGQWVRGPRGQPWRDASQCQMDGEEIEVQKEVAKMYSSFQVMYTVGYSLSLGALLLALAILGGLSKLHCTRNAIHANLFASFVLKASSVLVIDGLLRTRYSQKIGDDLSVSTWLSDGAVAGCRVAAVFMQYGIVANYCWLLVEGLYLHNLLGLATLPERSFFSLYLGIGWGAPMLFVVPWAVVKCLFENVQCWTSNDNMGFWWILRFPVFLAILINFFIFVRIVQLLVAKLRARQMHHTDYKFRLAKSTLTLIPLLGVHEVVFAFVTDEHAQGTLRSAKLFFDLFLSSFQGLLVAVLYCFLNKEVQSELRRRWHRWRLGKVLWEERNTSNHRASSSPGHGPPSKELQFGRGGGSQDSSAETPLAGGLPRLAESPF
human glucagon receptor, sequence (P47871 26-477): as above

Molecule | hGCGR/hGLP1R (hTone) [1] | hGCGR/hGLP1R (hTone): ratio of cAMP EC50 at human GCGR to cAMP EC50 at human GLP1R [2] | GCGR EC50 (nM) human; cAMP production (HitHunter cAMPXS), 20% human serum [2] | GLPR1 EC50 (nM) human; cAMP production (HitHunter cAMPXS), 20% human serum [3]
CCCCCCCCCCCCCCCC(=O)N[C@@H](CCC(=O)N[C@@H](CCC(=O)NCCCC[C@H](NC(=O)[C@H](CC(=O)O)NC(=O)[C@H](CO)NC(=O)[C@@H](NC(=O)[C@H](Cc1ccccc1)NC(=O)[C@@H](NC(=O)CNC(=O)[C@H](CCC(N)=O)NC(=O)C1(NC(=O)[C@@H](N)Cc2c[nH]cn2)CCC1)[C@@H](C)O)[C@@H](C)O)C(=O)N[C@@H](CO)C(=O)N[C@@H](CCCCN)C(=O)N[C@@H](Cc1ccc(O)cc1)C(=O)N[C@@H](CC(C)C)C(=O)N[C@@H](CC(=O)O)C(=O)N[C@@H](CCC(=O)O)C(=O)N[C@@H](CCCNC(=N)N)C(=O)N[C@@H](C)C(=O)N[C@@H](C)C(=O)N[C@@H](CCC(N)=O)C(=O)N[C@@H](CC(=O)O)C(=O)N[C@@H](Cc1ccccc1)C(=O)N[C@H](C(=O)N[C@@H](CCC(N)=O)C(=O)N[C@@H](Cc1c[nH]c2ccccc12)C(=O)N[C@@H](CC(C)C)C(=O)N[C@@H](CC(C)C)C(=O)N[C@@H](CC(=O)O)C(=O)N[C@H](C(N)=O)[C@@H](C)O)C(C)C)C(=O)O)C(=O)O [SEQ ID NO: 18] | 1.25 |  |  | 
CCCCCCCCCCCCCCCC(=O)N[C@@H](CCC(=O)N[C@@H](CCC(=O)NCCCC[C@H](NC(=O)[C@H](CC(=O)O)NC(=O)[C@H](CO)NC(=O)[C@@H](NC(=O)[C@H](Cc1ccccc1)NC(=O)[C@@H](NC(=O)CNC(=O)[C@H](CCC(N)=O)NC(=O)[C@@H](CO)NC(=O)[C@@H](N)Cc1c[nH]cn1)[C@@H](C)O)[C@@H](C)O)C(=O)N[C@@H](CO)C(=O)N[C@@H](CC(C)C)C(=O)N[C@@H](Cc1ccc(O)cc1)C(=O)N[C@@H](CC(C)C)C(=O)N[C@@H](CC(=O)O)C(=O)N[C@@H](CCC(=O)O)C(=O)N[C@@H](CCCNC(=N)N)C(=O)N[C@@H](C)C(=O)N[C@@H](C)C(=O)N[C@@H](CCC(N)=O)C(=O)N[C@@H](CC(=O)O)C(=O)N[C@@H](Cc1ccccc1)C(=O)N[C@H](C(=O)N[C@@H](CCC(N)=O)C(=O)N[C@@H](Cc1c[nH]c2ccccc12)C(=O)N[C@@H](CC(C)C)C(=O)N[C@@H](CC(C)C)C(=O)N[C@@H](CC(=O)O)C(=O)N[C@H](C(N)=O)[C@@H](C)O)C(C)C)C(=O)O)C(=O)O [SEQ ID NO: 16] (H-H[dS]QGTFTSDK([γGlu-γGlu-Palmitoyl])SLYLDERAAQDFVQWLLDT-NH2) | 0.91 |  |  | 
CCCCCCCCCCCCCCCC(=O)N[C@@H](CCC(=O)N[C@@H](CCC(=O)NCCCC[C@H](NC(=O)[C@H](CC(=O)O)NC(=O)[C@H](CO)NC(=O)[C@@H](NC(=O)[C@H](Cc1ccccc1)NC(=O)[C@@H](NC(=O)CNC(=O)[C@H](CCC(N)=O)NC(=O)[C@@H](CO)NC(=O)[C@@H](N)Cc1c[nH]cn1)[C@@H](C)O)[C@@H](C)O)C(=O)N[C@@H](CO)C(=O)N[C@@H](CCCCN)C(=O)N[C@@H](Cc1ccc(O)cc1)C(=O)N[C@@H](CC(C)C)C(=O)N[C@@H](CCC(=O)O)C(=O)N[C@@H](C)C(=O)N[C@@H](CCCNC(=N)N)C(=O)N[C@@H](C)C(=O)N[C@@H](C)C(=O)N[C@@H](CCC(N)=O)C(=O)N[C@@H](CC(=O)O)C(=O)N[C@@H](Cc1ccccc1)C(=O)N[C@H](C(=O)N[C@@H](CCC(N)=O)C(=O)N[C@@H](Cc1c[nH]c2ccccc12)C(=O)N[C@@H](CC(C)C)C(=O)N[C@@H](CC(C)C)C(=O)N[C@@H](CC(=O)O)C(=O)N[C@H](C(N)=O)[C@@H](C)O)C(C)C)C(=O)O)C(=O)O [SEQ ID NO: 13] | 0.90 |  |  | 
B1 |  | 1 ratio |  | 
B2 |  | 0.88 ratio | 0.042 nM | 0.048 nM
H[dS]QGTFTSDK([γGlu-γGlu-Palmitoyl])SKYLDVRRAQDFVQWLLDT-NH2 (not fully specified; printed as HsQGTFTSDK(γEγEC16)SKYLDVRRAQDFVQWLLDT-NH2) [Co-agonist Peptide 2] |  | 0.3 ratio |  | 
B3 |  | 8.98 ratio |  | 
HXQGTFTSDKSKYLDERAAQDFVQWLLDT (D-Ser at 2; Lys 10 conjugated to γEγE-C16 (palmitoyl); C-terminal amide) [Comparator Co-agonist Peptide 6] |  | 1.3 ratio | 0.009 nM | 0.007 nM
B4 |  | 0.9 ratio | 0.03 nM | 0.033 nM
B5 |  | 1.02 ratio |  | 
